Test results reported in the DeepSol protein solubility set.

Assay: soluble on expression in E. coli; label from the status in PepcDB or PDB records

**Q.** With “MAHHHHHHMRVFVLVAVRSGDGGVATYPPSVWHLQQCVRARSASCCHATSGGYLWTRDALFRALRRTHVDGAPASVLENAGASQRAKAAAPPCFYFFSALLDVGNNEEDVDLVALLLMELCVAWPNAIAAHMEVCRVCRGELSPAHASSPLAATLGEGETDEPSWQLEHFTREEALLVLLSDEIEATAATQDDFLTRWGVHNAWDHHRALQGRSWWVSGGIVAVLPSEAATRLVEPFLMLELSRMENGCPQLSRHPASCRDSSQTLEEALTHAILERELSHSVRAYLRNEVEGRIESRRLHRMTTVVPPAMALFLRGAPSSVLHECLLYHTVDCPLFPVEGGGCDAAQSSTDRATGLVAPAASPTAFLRPVKSGLSSTDLLERQRLVARDETSRLTELFCEYDLLLSGDGYVRVPLAPVSRYVFTQLLCQSELPSALMLALMRRHSDVTRRAGDMGHRIDPAAVSSRLPPPTEEEVVLGIKVTWAVTRWTAALQRGAAAAPPVGLPMWNEEQSLRKDKLCGWIRERMRKAKREAAELYSLEDAADTRATGREEDGVASTVSALPVASGDTADPLRRCRGAALEQLERRLFAPFPSSYRGSSTEWLGQALRDVAREQRHAASNMAQRDDVRASYAGPAPAARRAASPNVLDNSSSASDSDGTSDDGSEGAGGVGTPTRQETESLLAQLTELEVVLQNELASRTAIPLACGGDSRTTDSRLGVGDAVTGDQEMDVTSWLTAADMQQVTRNELFLHHVQLLESEMEQDQ” as the sequence, how does the “soluble on expression in E. coli” value read?
**A.** not soluble

**Q.** With “MAHHHHHHMRYFRVLHNFDAQDGVELTVKKGETVFTAESEVREGWIKVEVLHDPRRRGFVPFNYLRETTESLAREQEEGSRGIGRESGGMSTASMTLQPSAVPRETSVTFTSGALDYGDRLQNMYGVGASAPSPVSQRSRSAEQGMKRVNENSMATATKGAVMEPLLPSQKVPSSPPSGADPVPERSLLNNPSAIVEAFMKNELHFKQLIRQRQDALAQMRTTVEEAMSELAACKEKNFTLARKLRELDQSVEKERGRWKERIMEEKAYISRSMSSE” as the sequence, how does the “soluble on expression in E. coli” value read?
**A.** soluble

**Q.** Which “soluble on expression in E. coli” value does the source give for “MAHHHHHHMSAAAADYPLRRGGDVEDDVDDEERRRLTESSIKAFLEEEGVPVRSSVTVEDITSALVALANSVATASACLAVKVALLRLDCLTAVEGELRKDATRASSSKVRVTAEKSPSPRMTRASAFGWLRHLHQEGKGVCGVLRGGKAELGFVLASFVEEALLFAAMRSLMDRLGPLLPSENGRAGGAAALWWAGLSRTVAPTFVMSLLSWPLRAVRTTIRVNYMADTSLPVCEPSLQPAQQQGEQQQRRQHRYTSATEVWGCVLHRMGVRSLLLNGLDVDFASRALSLGLAWTVVKPASRWMQRWAMMSASTAGAASAPLALVRLGQHRLFALGVLLAVAGSVNALQRPFVVLRQRMALLPVADAESVCNGDDDQTKTPPTARRGCRYANGWDCAVQVWRQEGVSGLLAGLPLCLITSSVVPLLRTFAGYPTAPSFSGAVV” here?
**A.** not soluble

**Q.** With “MAHHHHHHMSAVLMAAVKVWTGNVRACLRVHHDTRTFCKAMKMRNLPVVLLDGVRFASLESVQHGKVRTRKDVVSGDLCVAIRKLNGVELMDDVQPRDPAIFLRDEKSKTFSAEEAREIYSIIVKSLSHILVVDSEVKTVECGIKRIMGNSTATEPETPKLTDLIRWLKSNMSTHDVLPIFSTQDRTVTFFVNQKIFRRIGHSDNGRRKK” as the sequence, how does the “soluble on expression in E. coli” value read?
**A.** not soluble

**Q.** With “MAHHHHHHMSCITSPPQPSSPPRMDAHTCVCIGITMPPAARQRKGARRSLTLPLLSLPWRKIRDQEGGAVCAGPVQQLPWKVRAEAALQSRPSPPAIRRRYLALSLPMRTSAAAAVAAAAHAGVRALHTATGVAGNSCGASPRATVALPPHSGLTLPSFTRCGASSAAFITRAHSVGCCGCAAAVKQHRLYSSHGCSSNSSGSFADSSRPYVPGQAVQETYPIIQLPARSLWCRQYALDARRVAQGEYAGLISQVREARHYYQYPSMSAPQTGWNVQMFTLFDNSVFINPVNLDEEVWRAEAARQGMSWVAFEEEKMRELRAEGLTGFAWEPCASSGFLLHYIERPLTVRMRALDEHGKPFTVTLDKMRARMALHELDHLQGVLFTRRVVDTDHVVPMEGFVTMSDWSDDYPSLEARSTFLYTIFTPPYHFVSDAVPDGNLLDRKFEDGIYPGCEQDRQQRIELTAMEEIQRNVWRKEKAKRKEGGQQCGRGDVTAVEDDDGSGAAGAR” as the sequence, how does the “soluble on expression in E. coli” value read?
**A.** not soluble

**Q.** Which “soluble on expression in E. coli” value does the source give for “MAHHHHHHMSDAFEARMSAMRARLSSLCHTVEEQEVEQQQQRRSFEHRYFVEARAAGSAATPAATKPITSTATPPSSAPISRPVTSKSQVPRTDGISERDVNQVHSASRKDAAFGHHFGTSSPSASITRARAAKPGSGVNAMLQLARYHASGSWSEAVVTKDIVRFTGGRSSPVPKAPATIPPEAFAVNTGQDTTDSSPVPLMPCGVAGLHSYGFRERLPSPRRPTASLAANTVDLASRNGEGRTSQNTPREESCITAADTTIVDTMHADEATSFDAFRVVQERLRQKMMQLTTTSPHSVVPLSTRGAPAEFAVSDDATAPREELPHRGLTASRAVSDVDGSSPSPRPPPGTRAETATPTRSPDKDESSSHETAPLPQTTPRYQHGQGDTWTDVEVLPATTEPDTENATEARLFTHGSLHDSVVGSGDETTAVSREWQWSRCGVPSTKARTANVPRGVFDPTVRHVRVSRMPSSDAQLNPAAGEQRADSREYRRSPEAATAGRAHSDRGRSGRTTASIQHGVSSAPRRSGSRHAPSSTSAARWSATREGSVSTAARSRKSAPKPAARPKPISLNVEATILCPVTGAELFALLRMRGLIDSEGDTAEYRLPPVRCHRLYVTAEEHRQLKLLRQSLHSLVAEEQHQDIPSYQRFTVSARSRNAEFAPPPPVLRYMDV” here?
**A.** not soluble

**Q.** For “MAHHHHHHMSDHEMYDNIDAGASQTYPVQAGAIKKNGHVMLKEHPCKVVDYSTSKTGKHGHAKAHIVGIDIFTGRKYEDICPTSHNMDVPVVKRTELQLIDITEDGFVSLLYDNGDTKDDLSLPKDTEGNLDEVAKQIRNLFDNGKSVLVSVLSACGQEKIIAAKELSS”, which “soluble on expression in E. coli” value is on record?
**A.** soluble

**Q.** Which “soluble on expression in E. coli” value does the source give for “MAHHHHHHMSDQINVKHKIGDTCRKLYSYFKTVNNTSTFIQNGTLTPSEFVDSGDFLVYKFKTWEWQEADKDRVVPYLPENKQFLITKNVPCKQRIKDLNNIVHDLIMIGYSQVMKKITIPQIYMNIYLIVNTQLMTKMYKMYKITSCYSKNMLHDSNSFKNNFIIIIKNFTCLNIITYDKYYQTPRIWLFGYNENGDPLKSEEIFEDILSDYSYKTVTVKIKIIFMILIRVLVHAEAILNVVNNWISEEKEPRIKKRINVYMYVFCFRHDLYLLFLLKFISGVIPTIEYDFTTDIEIPRDSNAGL” here?
**A.** not soluble

**Q.** For “MAHHHHHHMSFKQVFLRDNEECQAFPWDALTHPSQSAGEERRTIHHHLAWPAVCEREEAVMGTQPARKVSELTSVSFFLQPPFAIPRRKTGRSSLGCRHDRPLYAAGSAGPRCGDKPTLFVGAAEADFCDDMGWRQRSNSPVSSVEHNAEDDGEDFDVEPVVLKRSLSEKDRRKRLHLSEMSARLCHAFAMKPFRLACGLGLDESDDGVGMENQSGWGAGEEAAVPLREKDDDDDTTPARQTAPISETQRGNTALNFTDNDLSVVRAIALALMEEGEKKRRQEMRRKTN”, which “soluble on expression in E. coli” value is on record?
**A.** not soluble

**Q.** For “MAHHHHHHMSFVKGAIHVSILNNYMDFYKESTVDKIETSFSIRNNNESNTKNNEKRKSSLCIMNDEEKMKNKISKCIKNNNLYKNKKKRRKEKNIISNKSRSKKFLKFNIKGKDKKNNINSNIYNNANNNKLKIKNKNNNNNNNNNKINSCCRNVYKGSTNKRNSKLLLNGEIKHDEIFHTNIDNSFICMNKNDMNLIRKCKENNHPIKQMNTKIKKKKYNKKNVLISKQINKEIQMLKSNNSYIMYHMNEKRNIEKEKKKKKCKKIVKSILYNRKRSHYYISNFLKTCMKIKNNKIQKKLKKYVYLKDIYSTINMSNKQTCNNLNEQNKSQFFFDDLQKVRQVNKCDNKLYKMNFKSLKHQTNGKKNNIKENDNNNNFYNEDNSIAEILSDDYIILNKNKSNKMENKIYNNVINHRHSSEDIYLNHSKSKENNNNLVNSYVMKENNMEDKELMNDNEKKEGQLILKNVNKKIQLCNESKLDNEKKNKGDNIKLGNTKNKDNIYKYLNVLSINKLIKGETYLEKRTKKSDNSNEHKNDNIYDDKKIKYKSVENDTSELLDKNIDNSNFFDEANEKKKKLKKKKMNTCVNKNVMDYVNEDEYYLEERVKKKRKKKKKDNKKYNIKNKNESEEIFEDVSSTNSCIDSNNSGTFIYDEEICKHVINKGNIISNNNNNNNNNNYIVLTGNEKNMNAEEISEYITKQGLNFKEYLIWKEIKIKESKELIHLNLDSSFSVSKGAGLYNYGQNICFFNSIIQAIIRIPYICKDLLNKLHSINCEKRKKKTFCFYCLFEQFACNIISKKSVIKNVLIPYIKKYMCNSYHIGYQEDVHEYLRYFLNSLEKTSFFSSIYIQKMFTGVSKNVTICMNCNNVSLKYEQYYELSLDISSSNNLEDALKHFLSKEMLAGENGYYCEKCKKKKKATKQCVINKLPRVLTIQIKRFFMNSNFDIVKNHKNISYPLYLDMKYYVNNYDLFENNFNNNVISLYEKMNKTNCVGSTTNGPNKKNNKIYHQNNSCNIKSNNHFVHTNYNNKGQNILTPEKLTQQNIIPEHSFSKNKVNYENDFFLNNMNKKRECSNDDIISNINKNENIFFNNKDKEYMINEKYMNTNQCIKLRGGNHNINMHVLKIIENILIDLKESMCQKQIQNKLTSKVLRNMIREKKKLLIKQLKKIKFSKLYKDISLRISKDIDMLYYYFKVNRENDQFKKIIYKYKIDYYEYYVGSTNINADFINYNHNFDSPAKDHHNNNPHQNNDENNNRHSNVNFKEGNAKNSNKKNNYFSFELTGLIKHIGSGTDYGHYIALTKSNNNIYLQCDDNHISYINKKDILNCVKNAYVFIYTCINPEFIDFYNKYVDVLEKKNFDINLPVFEKRVKFKERITMPKEKFINKSLCY”, which “soluble on expression in E. coli” value is on record?
**A.** not soluble

**Q.** For “MAHHHHHHMSGDLLEILGESRNWVLKRHRVLGKGGFGCATLYEEVHTPGSFVVVKDINMQIMKKEEEMKAVEMEVAILRRSCGHPNIVQFLDYYHDGQFMMYIVMEYCEGGDLARLEEQMQFRVFHQPERFVASILIQMLVGLYYLHVDQHTLHRDIKPQNVFLCSDGTIRIGDFGVSTVLNQYGCRAKAVCGSPFYMAPELCEEKAYDGKADLWSLGVMMYELMVLERPFNAKSIPALTRQIIHGEFSPIPRELHYSAQLVEMVESFLQTSPTARPTLRRVLRSSYVHSHLDCVPIVCLLSDHYARLFGEELLQQILQKHKDSTNTTSQVTTVVSRNSASVQEVERCKNHSDHSDSASAQPLAHQEISELEQWLEANGDVTDAFIDAQLPRNRADGQELSNSPSDIGRAVKTGRVFSDDIMDDSISSEQGKGQQAEDDVRDDFYEDDFESESSG”, which “soluble on expression in E. coli” value is on record?
**A.** soluble

**Q.** For “MAHHHHHHMSGYLKVLSPDGRWETRYIEIDDAKLRIWRTKGDKESSAAVVKELDLKCATLREVSEPNTWAVQPEKAEATYFQADGEERKTEWMDTLRHYNSSSSGSEKVTLRDFEKKFVLGKGSYGKVFMVVKKDTDKWYAMKEMSAEKMRQAEIKAPFAERIILEEIDHPFIVHLHYSFQEQGNLYMILDLLAGGELFTYIEQHAPLDEEVVKFYAAEVALALGYLHSRNIIYRDLKPENVVFDRDGHACLTDFGLAKANVHEPNAVTYCGTNEYLAPELLKGVPHGKAVDWWSLGLMMCEMLFNDLPFYDENPMQMQMKILTEDVAFPPHIQITEETKDLIRCLLNKNPERRLQTLEAFKAHKCFSNLDFCLLEARKLKAPITPDPNPAHNFAKEFTSEVIVQNESPSQAVVTLAGYTYDRDLSEQEKSPSHSPTIAEELRQRRASKKRPTNGSDAASPPVTGENRTSNSSPAGVPMKQAAPGPVKKVEHHIPAKVAPQAARKKLTGNKSFDKPTK”, which “soluble on expression in E. coli” value is on record?
**A.** soluble

**Q.** Which “soluble on expression in E. coli” value does the source give for “MAHHHHHHMSLLKADQLRRDLFIKYSDKIAELLGETEECSPTEEQREKEEIETTEQRGLSSLPKRFRISYPRQHLLRQRAMQMPPAADVGDAENSPASASNSTCPPLGETATDEDENVETIWVELDEEEKRPVYNEPYPSVKRMMRRMQDESLRLLMREARIPVTPHQGDAYLLQRMEVLQQLEKNIGDDRIKILARLQKMDGKLHTCE” here?
**A.** soluble
